The test concerns the target Truncated WDR5 (Δ23, residues 22–334) (UniProt P61964 22-334). The test is described as follows: NMR titration.

For Ac-ARTEVHLRKS-NH2 [MLL1 10mer peptide Ac-ARTEVHLRKS-NH2], the binding result is “binds”.

(Values after PMC6842305 (Journal of medicinal chemistry, 2018).)
